{"source": "patent US6395531", "system": "MlyI restriction endonuclease (Micrococcus lylae)", "assay": "cleavage_in_vitro", "conditions": "recombinant MlyI yield approximately 50,000 units per gram of cells; assay substrate not stated"}
{"substance": "plasmid DNA with MlyI sites (sequence not printed)", "values": [{"measurement": "activity (units/g cells)", "value": 50000}]}
